Laboratory results taken from patent US20230348600A1 (INHIBRX, published 2023).

Key:
[1] = biological target: T1, human CD28 (full-length, cell surface) (human, UniProt P10747 19-220); experiment: flow cytometry, titration of sdAb-hFc on HEK293FS cells transiently transfected with full-length human CD28; Alexa Fluor 647 anti-human IgG
T1 construct: On HEK293FS cells transiently transfected with full-length human CD28, or endogenous on Jurkat cells and primary human T cells; also called hCD28; cluster of differentiation 28

[2] = biological target: T1, human CD28 (full-length, cell surface); experiment: flow cytometry, titration on Jurkat cells (5T4-/PDL1-/CD28+)
[3] = biological target: T1, human CD28 (full-length, cell surface); experiment: flow cytometry, titration on Jurkat cells (endogenous CD28)
[4] = biological target: T1, human CD28 (full-length, cell surface); experiment: flow cytometry on Jurkat cells and primary T cells enriched from PBMCs (endogenous CD28)

B1: 1G7 CD28 sdAb formatted with human IgG1 Fc (sdAb-hFc) (Fc fusion)
chain: EVQLVQSGGALVQAGGSLRLSCVAPRTIGLISLMGWYRQAPGKQRELVATIIASGRTNYAESVKDRFTISRDNAENKVYLQVNSLKPEDTAVYYCRVNAETAPWSRRGFWGQGTQVTVKPPAPELLGGPSVFLFPPKPKDTLMISRTPEVTCVVVDVSHEDPEVKFNWYVDGVEVHNAKTKPREEQYNSTYRVVSVLTVLHQDWLNGKEYKCKVSNKALPAPIEKTISKAKGQPREPQVYTLPPSRDELTKNQVSLTCLVKGFYPSDIAVEWESNGQPENNYKTTPPVLDSDGSFFLYSKLTVDKSRWQQGNVFSCSVMHEALHNHYTQKSLSLSPGK
notes: also called 1G7 sdAb-IgG1
Q: Does B1 bind [1]?
A: Result: binds

B2: 1C9 CD28 sdAb formatted with human IgG1 Fc (sdAb-hFc) (Fc fusion)
chain: EVQLVQSGGGLVQTGGSLRLSCAASGRMFSNYAMGWFRQAPGKEREFVAAINYRRDSADYADSVKGRFTISRDNAKNTVYLEMNSLKPEDTAIYYCGFTYAGWASSRRDDYNYWGQGTQVTVKPPAPELLGGPSVFLFPPKPKDTLMISRTPEVTCVVVDVSHEDPEVKFNWYVDGVEVHNAKTKPREEQYNSTYRVVSVLTVLHQDWLNGKEYKCKVSNKALPAPIEKTISKAKGQPREPQVYTLPPSRDELTKNQVSLTCLVKGFYPSDIAVEWESNGQPENNYKTTPPVLDSDGSFFLYSKLTVDKSRWQQGNVFSCSVMHEALHNHYTQKSLSLSPGK
notes: Bivalent sdAb-IgG1 homodimer; also called 1C9-IgG1; 1C9 sdAb-IgG1
Q: Does B2 bind [1]?
A: Result: binds

B3: cx694 (PDL1xCD28 bispecific construct) (bispecific antibody)
chain: EVQLLESGGGEVQPGGSLRLSCAASGGIFAIKPISWYRQAPGKQREWVSTTTSSGATNYAESVKGRFTISRDNAKNTLYLQMSSLRAEDTAVYYCNVFEYWGQGTLVTVKPGGSGGGGSEVQLVQSGGGLVQTGGSLRLSCAASGRMFSNYAMGWFRQAPGKEREFVAAINYRRDSADYADSVKGRFTISRDNAKNTVYLEMNSLKPEDTAIYYCGFTYAGWASSRRDDYNYWGQGTQVTVKPPAPGGPSVFLFPPKPKDTLMISRTPEVTCVVVDVSHEDPEVKFNWYVDGVEVHNAKTKPREEQYNSTYRVVSVLTVLHQDWLNGKEYKCKVSNKALPAPIEKTISKAKGQPREPQVYTLPPSRDELTKNQVSLTCLVKGFYPSDIAVEWESNGQPENNYKTTPPVLDSDGSFFLYSKLTVDKSRWQQGNVFSCSVMHEALHNHYTQKSLSLSPGK
notes: also called PDL1xCD28 bispecific protein
Q: Does B3 bind [2]?
A: Result: no binding

B4: cx984 (CD28 monospecific construct) (Fc fusion)
chain: EVQLVQSGGGLVQTGGSLRLSCAASGRMFSNYAMGWFRQAPGKEREFVAAINYRRDSADYADSVKGRFTISRDNAKNTVYLEMNSLKPEDTAIYYCGFTYAGWASSRRDDYNYWGQGTQVTVKPPAPGGPSVFLFPPKPKDTLMISRTPEVTCVVVDVSHEDPEVKFNWYVDGVEVHNAKTKPREEQYNSTYRVVSVLTVLHQDWLNGKEYKCKVSNKALPAPIEKTISKAKGQPREPQVYTLPPSRDELTKNQVSLTCLVKGFYPSDIAVEWESNGQPENNYKTTPPVLDSDGSFFLYSKLTVDKSRWQQGNVFSCSVMHEALHNHYTQKSLSLSPGK
notes: Homodimer of two identical chains; also called monospecific, bivalent CD28 sdAb cx984
Q: Does B4 bind [3]?
A: Result: binds

B5: 1C9-xELL (1C9 CD28 sdAb formatted with variant human IgG1 Fc xELL) (Fc fusion)
chain: EVQLVQSGGGLVQTGGSLRLSCAASGRMFSNYAMGWFRQAPGKEREFVAAINYRRDSADYADSVKGRFTISRDNAKNTVYLEMNSLKPEDTAIYYCGFTYAGWASSRRDDYNYWGQGTQVTVKPPAPGGPSVFLFPPKPKDTLMISRTPEVTCVVVDVSHEDPEVKFNWYVDGVEVHNAKTKPREEQYNSTYRVVSVLTVLHQDWLNGKEYKCKVSNKALPAPIEKTISKAKGQPREPQVYTLPPSRDELTKNQVSLTCLVKGFYPSDIAVEWESNGQPENNYKTTPPVLDSDGSFFLYSKLTVDKSRWQQGNVFSCSVMHEALHNHYTQKSLSLSPGK
notes: also called 1C9 sdAb-xELL
Q: Does B5 bind [4]?
A: Result: binds

B6: cx8370 (PDL1xCD28 bispecific construct) (bispecific antibody)
chain: EVQLLESGGGEVQPGGSLRLSCAASGGIFAIKPISWYRQAPGKQREWVSTTTSSGATNYAESVKGRFTISRDNAKNTLYLQMSSLRAEDTAVYYCNVFEYWGQGTLVTVKPGGSGGSEVQLVQSGGGLVQTGGSLRLSCAASGRMFSNYAMGWFRQAPGKEREFVAAINYRRDSADYADSVKGRFTISRDNAKNTVYLEMNSLKPEDTAIYYCGFTYAGWASSRRDDYNYWGQGTQVTVKPPAPGGPSVFLFPPKPKDTLMISRTPEVTCVVVDVSHEDPEVKFNWYVDGVEVHNAKTKPREEQYNSTYRVVSVLTVLHQDWLNGKEYKCKVSNKALPAPIEKTISKAKGQPREPQVYTLPPSRDELTKNQVSLTCLVKGFYPSDIAVEWESNGQPENNYKTTPPVLDSDGSFFLYSKLTVDKSRWQQGNVFSCSVMHEALHNHYTQKSLSLSPGK
Q: Does B6 bind [2]?
A: Result: no binding

B7: 2F11 CD28 sdAb formatted with human IgG1 Fc (sdAb-hFc) (Fc fusion)
chain: QVQLQQSGGGLVQAGGSLRLSCVASGISFNVVDMDWHRQAPGKERELVAGITRGGATYYADSVKGRFTISRDNAKNSAYLQLANLKPEDTAVYYCNARWPSRYQNYWGQGTQVTVKPPAPELLGGPSVFLFPPKPKDTLMISRTPEVTCVVVDVSHEDPEVKFNWYVDGVEVHNAKTKPREEQYNSTYRVVSVLTVLHQDWLNGKEYKCKVSNKALPAPIEKTISKAKGQPREPQVYTLPPSRDELTKNQVSLTCLVKGFYPSDIAVEWESNGQPENNYKTTPPVLDSDGSFFLYSKLTVDKSRWQQGNVFSCSVMHEALHNHYTQKSLSLSPGK
notes: Bivalent sdAb-IgG1 homodimer; I treated them as the same clone; also called 2F11 sdAb-IgG1
Q: Does B7 bind [1]?
A: Result: binds
